Measurements reported in FireProtDB (doi:10.1016/s0022-2836(99)80018-7).

Details: Bacillus amyloliquefaciens; pH 6.3; 25 °C; Urea; Fluorescence; MES 50 mM; reversible: yes; whole UniProt chain shown

B1: Ribonuclease wild type, P00648 (protein)
chain: MMKMEGIALKKRLSWISVCLLVLVSAAGMLFSTAAKTETSSHKAHTEAQVINTFDGVADYLQTYHKLPDNYITKSEAQALGWVASKGNLADVAPGKSIGGDIFSNREGKLPGKSGRTWREADINYTSGFRNSDRILYSSDWLIYKTTDHYQTFTKIR
In the case of B1, the denaturant m value is reported as 2.02 kcal/mol/M, the “denaturant midpoint (higher = more stable)” value is reported as 4.58 M and the unfolding free energy is reported as 9.93 kcal/mol.
